Entries after “also recorded” stand apart in the source; their conditions may differ.

The target of assay [1] is T1, purified human α5β1-integrin (Homo sapiens, UniProt P05556+P08648).
T1 construct: purchased Chemicon International (Temecula, Calif.)
As to the kind of experiment: Solid phase dot-ELISA: α5β1-integrin binding to immobilized uPAR peptides and suPAR. As to conditions: for α5β1-integrin binding to immobilized peptide: peptide immobilized on nitrocellulose, α5β1-integrin 750 ng/ml. As to the method: FIGS. 1A-H show the interaction between α5β1-integrin and immobilized uPAR and uPAR-derived synthetic peptides through solid-phase dot-ELISA. […] Bound integrin was detected with anti-α5 integrin antibody followed by goat anti-rabbit IgG (H+L) HRP conjugated secondary antibody and developed with enhanced chemiluminescence (“ECL”). FIG. 1B is a graph showing that binding of integrin to suPAR is saturable. SuPAR (1.5 μg) was immobilized on nitrocellulose membrane in triplicates, incubated with 0, 0.1, 0.5, 1, 2, and 4 μg/ml of α5β1-integrin and tested for integrin binding as in FIG. 1A. The dots were scanned with NIH Image. Mean and SE are shown. […] Peptides representing regions located in each of the three uPAR-domains were immobilized, incubated with α5β1-integrin, and analyzed as in FIG. 1A. Only peptide 240-248 binds α5β1-integrin. FIG. 1D is a graph showing that peptide 240-248 inhibits integrin binding to suPAR. The α5β1-integrin (750 ng/ml) was pre-incubated for 15 min at room temperature with 100 fold molar excess of 240-248 or 17-24 peptides, or with no peptide (Control) and the mixtures were applied to immobilized suPAR (1.5 μg), 2 dots per mixture, and developed as in FIG. 1A. The dots were scanned with NIH Image. The results (bars) show % of control, the lines show range. FIG. 1E is a graph showing binding of α5β1- and α3β1-integrin to suPAR and peptide 240-248. Dot-ELISA was performed in duplicate as in FIG. 1A, except that purified α5β1-integrin and α3β1-integrin (750 ng/ml) were used. Bound integrins were detected with the appropriate previously titrated antibodies followed by goat anti-rabbit IgG (H+L) HRP conjugated secondary antibody and detection with ECL. The graph represents the mean and range of two values: α5β1-integrin binding to peptide 240-248 (▪) or SuPAR (▴); α3β1-integrin binding to peptide 240-248 ([…]) and SuPAR (x). […] Peptide 240-248 (domain III), 17-24 (domain I), and the S245A mutant of peptide 240-248 were immobilized and tested for integrin binding as in FIG. 1A. FIGS. 1G-H show the crystal structure of human uPAR shown as a surface representation. The three individual domains of uPAR in FIG. 1G are indicated as follows: D1 is on the right side, DII is on the top of the model, and Diii is on the left of the model. In FIG. 1H, the order of the domains is inversed. […] The location of the COOH-terminal in uPAR domain III harboring the GPI-anchor is indicated by the arrow (FIG. 1H). FIGS. 1G-H were created by the program PyMol (DeLano Scientific) using the coordinates 1YWH.
FIGS. 2A-B show solid phase dot-ELISA of suPAR. […] Binding was detected as in FIG. 1A and the dots were scanned with NIH Image. Mean of the two-scanned value for each suPAR concentration are shown in the bottom panel. Mutation of residues in the 239-249 sequence reduced the integrin binding by ˜50 to 94%. suPAR^E33A (▪), suPAR^wt (▴), suPAR^R239A (♦), suPAR^H249A (x), suPAR^Q248A (∘), suPAR^M246A ([…]), suPAR^S245A (□).
Synthetic uPAR-derived peptides and mutant proteins were diluted to 0.5, 1, and 2 μg/100 μl of PBS. […] The strips, pinned to the bottom of a plastic box, were washed with TBS with 0.1% Tween 20, overlaid with 500 μl of rabbit anti-integrin α5 polyclonal antibody (1:650) for 1 hr at RT, washed with TBST twice, incubated with goat anti-rabbit IgG (H+L) HRP conjugated secondary antibody (1:2000) for 1 hr, washed 3 times with TBST, and developed with ECL. The dots were scanned with NIH image.
For orientation: An ELISA detects its analyte on a solid surface through an enzyme-linked reagent.

The target of assay [2] is endogenous β1 integrin on HEK293 cells (active state) (human) (UniProt P05556). Briefly: flow cytometry, HEK293 cells expressing uPAR^wt. In general terms: Flow cytometry measures light scatter and fluorescence of single cells or particles in a stream.
For assay [3] the target is unchanged. As to the kind of experiment: flow cytometry, HEK293 cells expressing uPAR^S245A.
Assay [4] has the same target. Briefly: flow cytometry, vector-transfected HEK293 cells, medium alone.
For assay [5] the target is unchanged. Briefly: flow cytometry, vector-transfected HEK293 cells treated with Mn++ (1 mM MnCl2).
Assay [6] deals with T2, immobilized pro-uPA^S356A (Homo sapiens, UniProt P00749, S376A).
T2 construct: Coupling of pro-uPA^S356A to the sensor chip by EDC/NHS
As to the kind of experiment: Kinetics of pro-uPA/uPAR interaction by surface plasmon resonance. It is filed as binding. As to conditions: soluble uPAR (residues 1-283), 20° C. On the technique in general: SPR reads the build-up and loss of mass on a sensor chip optically.

For assay [7], the system named is T-HEp3 cells. Briefly: Screening of compounds by luciferase assay (Luc-Elk activity as readout for ERK). It is filed as cell-based, human. The following applies: 5 μM compound, 16 h. As for the experimental part: To test the effect of uPAR-integrin disruption by uPAR-docked compounds on ERK activation, T-HEp3 cells were transiently co-transfected with pFA-Elk1-fusion plasmid and pD700-luciferase plasmid in a 96-well plate. These plasmids report the state of ERK activation through luciferase activity level. After 24 h of transfection, cells were serum starved for 5 h and incubated with PD98059 (Calbiochem, San Diego, Calif.) (25 and 50 μM) and 5 μM of each compound prepared in DMEM. Following 16 h of incubation with compounds, the cells were lysed directly in Steady glo-luciferase lysis buffer (1:1) from Promega and read on Tecan Safire2™ using Magellan 6.0 software. Histographs representing the percent inhibition of Luc-Elk activity as readout for ERK reduction were generated.

Assay [8] relates to T-HEp3 cells. As to the kind of experiment: Fibronectin-fibrils disruption. In kind it is cell-based, human. The following applies: cells displaying fibronectin fibrils; control had 90.2% fibril positive cells; compounds 5 and 10 μM, 16 h. As to the method:
To test the effects of fibronectin-fibril disruption by the compounds, T-HEp3 cells were incubated in 5% fibronectin-depleted fetal bovine serum (FBS)/DMEM with 0, 2.5, 5, 7, and 10 μM of the compounds or anti-uPAR antibody (R2, 20 μg/ml) or anti-α5β1 antibody (BIIG2, 20 μg/ml) or MEK inhibitor (PD98059, 25 μM) as a […] at room temperature for 15 min prior to plating them in chambered slides. […] The cells were fixed with 3% paraformaldehyde for 20 min and the bound fibronectin was detected using rabbit anti-human fibronectin antibody and with FITC-conjugated secondary antibody.
Compounds MS0012479 and MS0019128 and their analogs were tested for fibronectin-fibril disruption. […] A total of 700 to 1150 cells were counted in 5 individual fields. Cells displaying fibronectin fibrils were then counted and expressed as a percentage of total cells. The mean obtained from the compound-treated cells was expressed as a percentage of control. The control had 90.2% of fibril positive cells (Table 2).

Assay [9] concerns the target T3, β1-integrin (Homo sapiens, UniProt P05556).
T3 construct: endogenous in cells; host or cells: HEK293 cells (ATCC), transiently transfected with pcDNA3.1 vector, uPAR^wt or uPAR^S245A
As to the kind of experiment: Detection of active β1 integrin by FACS (HUTS-4 antibody). In kind it is cell-based. The following applies: vector transfected HEK293 cells; 1 mM MnCl2; untreated 50.9%. As to the method: FIGS. 3A-C illustrate that […] expressed in cells has reduced ability to activate α5β1-integrin. […] HEK293 cells were transfected with pcDNA3.1 (vector), uPAR^wt, or uPAR^S245A and used 48 hrs later. Vector-transfected cells incubated with medium alone or with medium with 1 mM MnCl2, followed by HUTS-4 and uPAR-transfected cells (uPAR^wt and uPAR^S245A) incubated with HUTS-4 or isotype matched Ig (IgG2b) were then incubated with secondary rabbit-anti mouse IgG coupled to Alexa 488. uPAR expression was detected using anti-uPAR antibody (R2). In the upper panels, the results are plotted as number of events vs. fluorescence intensity. The numbers indicate percent of total population above the median fluorescence intensity determined in vector-transfected cells. The lower panel relates to overlay of uPAR in uPAR^wt (black line) and uPAR^S245A (grey line) transfected cells. […] Cell-bound fibronectin was detected by immunofluorescence 48 hrs after transfection. […] HEK293 cells plated in 60 mm dishes were transfected and treated as in FIG. 3B, and the DOC-insoluble fibronectin was analyzed by 6% PAGE and Western blot under non-reducing conditions. […]
HEK293 cells were transiently transfected with pcDNA3.1, uPAR^wt, and uPAR^S245. […] Finally, cells were washed and suspended in 400 μl of FACS buffer and analyzed in FACS Canto (Becton Dickinson, Calif.) using FACSDiva software. […]

In assay [10] the target is α5β1-integrin endogenous on HEK293, D-HEp3 and T-HEp3 cells (human) (UniProt P08648). Briefly: cell-based or functional assay.
α5β1-integrin endogenous on HEK293, D-HEp3 and T-HEp3 cells (human), sequence (P08648 42-1049, chain 1 of 2): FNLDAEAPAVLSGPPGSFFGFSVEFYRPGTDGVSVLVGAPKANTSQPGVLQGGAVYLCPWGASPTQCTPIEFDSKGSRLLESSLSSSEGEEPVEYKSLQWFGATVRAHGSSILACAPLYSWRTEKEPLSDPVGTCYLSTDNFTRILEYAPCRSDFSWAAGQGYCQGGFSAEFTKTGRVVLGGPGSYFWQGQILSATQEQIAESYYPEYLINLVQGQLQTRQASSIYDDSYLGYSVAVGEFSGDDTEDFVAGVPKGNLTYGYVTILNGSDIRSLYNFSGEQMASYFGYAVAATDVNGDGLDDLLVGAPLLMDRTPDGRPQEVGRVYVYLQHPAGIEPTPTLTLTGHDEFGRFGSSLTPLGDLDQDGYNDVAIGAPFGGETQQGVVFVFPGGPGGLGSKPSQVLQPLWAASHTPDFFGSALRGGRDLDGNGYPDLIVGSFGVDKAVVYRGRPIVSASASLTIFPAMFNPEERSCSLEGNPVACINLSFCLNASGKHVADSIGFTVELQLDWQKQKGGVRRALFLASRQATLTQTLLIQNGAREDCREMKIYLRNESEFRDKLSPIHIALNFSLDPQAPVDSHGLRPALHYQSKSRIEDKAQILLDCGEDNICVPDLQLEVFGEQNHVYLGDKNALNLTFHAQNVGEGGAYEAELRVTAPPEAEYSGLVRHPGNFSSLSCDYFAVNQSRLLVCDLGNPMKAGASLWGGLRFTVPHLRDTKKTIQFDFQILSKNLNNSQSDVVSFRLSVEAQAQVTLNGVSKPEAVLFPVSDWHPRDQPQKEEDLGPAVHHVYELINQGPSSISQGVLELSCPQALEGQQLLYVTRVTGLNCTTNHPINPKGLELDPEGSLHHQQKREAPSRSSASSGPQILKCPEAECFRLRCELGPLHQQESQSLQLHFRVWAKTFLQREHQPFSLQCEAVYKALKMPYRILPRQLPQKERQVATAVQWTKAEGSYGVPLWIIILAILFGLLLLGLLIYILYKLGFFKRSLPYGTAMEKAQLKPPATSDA
α5β1-integrin endogenous on HEK293, D-HEp3 and T-HEp3 cells (human), sequence (P05556 21-798, chain 2 of 2, further chain): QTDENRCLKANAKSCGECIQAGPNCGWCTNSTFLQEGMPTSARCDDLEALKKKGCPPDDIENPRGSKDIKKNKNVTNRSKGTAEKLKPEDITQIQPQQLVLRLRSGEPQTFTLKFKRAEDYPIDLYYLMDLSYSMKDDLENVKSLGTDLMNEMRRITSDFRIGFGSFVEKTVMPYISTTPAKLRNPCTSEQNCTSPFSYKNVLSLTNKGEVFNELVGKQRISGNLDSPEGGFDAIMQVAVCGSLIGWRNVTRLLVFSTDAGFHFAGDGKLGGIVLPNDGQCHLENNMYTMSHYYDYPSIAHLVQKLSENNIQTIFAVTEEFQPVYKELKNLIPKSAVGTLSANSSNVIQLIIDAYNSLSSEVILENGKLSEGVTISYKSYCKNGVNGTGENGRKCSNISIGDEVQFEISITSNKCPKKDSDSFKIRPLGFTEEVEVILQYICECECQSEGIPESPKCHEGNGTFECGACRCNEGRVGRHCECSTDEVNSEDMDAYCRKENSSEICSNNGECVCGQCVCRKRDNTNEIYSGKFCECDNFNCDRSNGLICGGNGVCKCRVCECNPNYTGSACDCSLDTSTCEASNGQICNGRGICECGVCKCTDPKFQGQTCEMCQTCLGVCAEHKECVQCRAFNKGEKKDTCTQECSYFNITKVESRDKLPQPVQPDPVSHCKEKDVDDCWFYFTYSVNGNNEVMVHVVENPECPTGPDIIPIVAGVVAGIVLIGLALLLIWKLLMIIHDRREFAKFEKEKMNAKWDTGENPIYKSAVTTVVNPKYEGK

T1 sequence (P08648 42-894 limits assumed): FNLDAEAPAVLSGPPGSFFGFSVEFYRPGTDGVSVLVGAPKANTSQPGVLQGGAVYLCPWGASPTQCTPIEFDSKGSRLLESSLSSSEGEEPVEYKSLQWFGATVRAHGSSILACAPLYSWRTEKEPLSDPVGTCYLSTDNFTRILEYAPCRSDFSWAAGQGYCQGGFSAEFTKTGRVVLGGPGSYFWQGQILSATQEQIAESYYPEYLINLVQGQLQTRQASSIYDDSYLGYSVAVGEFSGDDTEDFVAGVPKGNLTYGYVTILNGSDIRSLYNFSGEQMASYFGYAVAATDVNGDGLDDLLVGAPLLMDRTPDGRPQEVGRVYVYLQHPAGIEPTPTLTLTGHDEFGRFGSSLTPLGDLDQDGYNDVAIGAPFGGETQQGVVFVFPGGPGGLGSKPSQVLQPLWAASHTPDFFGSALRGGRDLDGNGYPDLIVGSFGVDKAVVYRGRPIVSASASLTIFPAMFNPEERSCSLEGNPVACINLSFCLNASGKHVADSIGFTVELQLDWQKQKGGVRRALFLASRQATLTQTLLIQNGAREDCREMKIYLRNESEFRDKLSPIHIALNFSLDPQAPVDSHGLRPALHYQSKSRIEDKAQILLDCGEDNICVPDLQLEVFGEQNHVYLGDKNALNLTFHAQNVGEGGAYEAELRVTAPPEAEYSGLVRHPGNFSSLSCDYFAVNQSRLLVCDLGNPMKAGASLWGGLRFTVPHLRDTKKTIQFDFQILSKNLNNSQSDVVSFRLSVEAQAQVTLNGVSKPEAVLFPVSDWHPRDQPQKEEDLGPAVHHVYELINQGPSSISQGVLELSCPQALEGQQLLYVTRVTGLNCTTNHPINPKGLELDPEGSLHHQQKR
T1 sequence (P08648 895-1049 limits assumed): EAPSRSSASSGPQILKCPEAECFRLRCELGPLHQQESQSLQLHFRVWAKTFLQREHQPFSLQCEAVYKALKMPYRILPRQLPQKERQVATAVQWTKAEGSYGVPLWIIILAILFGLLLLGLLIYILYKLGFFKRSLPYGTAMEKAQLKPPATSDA
T1 sequence (P05556 21-798): as the sequence (P05556 21-798, chain 2 of 2, further chain) above
endogenous β1 integrin on HEK293 cells (active state) (human), sequence (P05556 21-798): as the sequence (P05556 21-798, chain 2 of 2, further chain) above
T3 sequence (P05556 21-798): as the sequence (P05556 21-798, chain 2 of 2, further chain) above
T3 sequence (P08648 42-894 partner limits assumed): as the sequence (P08648 42-894 limits assumed) above
T3 sequence (P08648 895-1049 partner limits assumed): as the sequence (P08648 895-1049 limits assumed) above

For the compound “84-95: synthetic uPAR-derived peptide 84-95: AVTYSRSRYLEC (SEQ ID NO:7)”, the “α5β1-integrin binding to immobilized peptide” value in assay [1] is “no binding”.

For the compound HUTS-4 antibody, the % of population with fluorescence intensity above the median in assay [2] was 74.4%; in assay [3] it was 44.6%; in assay [4] it was 50.9%; in [5] it was 86.2%.

As for “uPAR mutant E33A: purified soluble uPAR (residues 1-283) with single amino acid mutation E33A in domain I”, in assay [1] (suPAR 0.5, 1.0, 2.0 μg immobilized, integrin 750 ng/ml), the “α5β1-integrin binding of full-length recombinant suPAR with single amino acid mutation” value is “no effect”. Moreover, in assay [6], the koff is reported as 2.19 10^−4 S^−1 and the kon is given as 2.52 10^5 m^−1 S^−1.

On to “66-74: synthetic uPAR-derived peptide, domain I 66-74: LTEVVCGLD (SEQ ID NO:6)”, for which the “α5β1-integrin binding to immobilized peptide” value in assay [1] is “no binding”.

Regarding `N=C(N/N=C\c1cccc(O)c1)c1ccccn1` [MS0019126], the ERK inhibitory activity result in assay [7] is on record as “very strong; also recorded: showed ERK inhibitory activity”. For the same compound, the “Quantification (% of control)” value in assay [8] was 66.0 % of control.

Take `[Mn+2]` [Mn^++]: the “population with fluorescence above the median (HUTS-4)” value in assay [9] worked out at 86.2%.

On to “uPAR mutant H249A: purified soluble uPAR single amino acid mutant H249A”, for which, in [6], the koff is 1.92 10^−4 S^−1 and the kon is reported as 3.84 10^5 m^−1 S^−1.

Turning to “uPAR mutant R239A: purified soluble uPAR single amino acid mutant R239A”, in assay [6], the koff is 1.48 10^−4 S^−1 and the kon is listed as 2.33 10^5 m^−1 S^−1.

Regarding “BIIG2 (α5β1-integrin function blocking antibody)”, the fibronectin-fibril positive T-HEp3 cells, % of control in [10] is 24.1 % of control.

Turning to “108-118: synthetic uPAR-derived peptide, domain II 108-118: GRHQSLQCRSP (SEQ ID NO:8)”, the “α5β1-integrin binding to immobilized peptide” value in [1] is “no binding”.

Turning to “uPAR mutant L66A: soluble uPAR single site mutant L66A, control known to affect uPA-uPAR interaction”, in [6], the koff is 10.6 10^−4 S^−1 and the kon is reported as 2.26 10^5 m^−1 S^−1.

Values taken from US20100249184A1, “INDUCTION AND/OR MAINTENANCE OF TUMOR DORMANCY BY DISRUPTION OF UROKINASE PLASMINOGEN ACTIVATOR RECEPTOR-INTEGRIN INTERACTION” (MOUNT SINAI SCHOOL OF MEDICINE, priority 2007, published 2010).
